Measurements: US20120093811A1 (published 2012)
Residue numbers refer to the chain shown, from its start.

T1: Source 1 VEGF-D, mature dimeric recombinant human VEGF-D (CSIRO) (human, UniProt O43915 89-205)
T1 construct: Whole entry named; also called Source 1 VEGF-D dimer; VEGF-D dimer
T1 sequence: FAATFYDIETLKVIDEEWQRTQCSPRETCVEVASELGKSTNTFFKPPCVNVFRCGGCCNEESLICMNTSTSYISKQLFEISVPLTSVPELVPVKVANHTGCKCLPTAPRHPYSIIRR

T2: VEGF-D (recombinant human; source not given) (human, UniProt O43915 89-205, limits assumed)
T2 construct: also used here as target of IC50 values averaged over Source 1 and Source 2; also called vascular endothelial growth factor-D
T2 sequence: T1 sequence

T3: Source 2 VEGF-D, purified recombinant human VEGF-D monomer (R&D Systems, Catalog Number 622-VD/CF) (human, UniProt O43915 93-201)
T3 sequence: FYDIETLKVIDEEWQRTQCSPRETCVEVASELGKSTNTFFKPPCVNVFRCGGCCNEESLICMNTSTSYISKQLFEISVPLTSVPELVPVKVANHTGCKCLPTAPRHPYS

B1: humanized IgG antibody derived from clone HX28 (antibody, V domains shown)
VH: QVQLVQSGAKVKQPGASVKASCKASGYTFTGYNMYWVRQAPGQGLEWMGYIDPYSGDTTYNQKFKGRVTMTTDTSTSTAYMELRSLRSDDTAVYYCARTSYYGGMDYWGRGTLVTVAS
VL: DIVMTQTPLSSPVTLGQPASISCRSSQSLVHSNGNTYLHWLQQRPGQPPRLLIYKVSNRFSGVPGRFSGSGAGTDFTLKISRVEAEDVGVYYCSQSTHVPRTFGQGTKLEIKR
notes: IgG
B2: scFv clone A63 (scFv)
scFv: QVQLVQSGAKVKQPGASVKASCKASGYTFTGYNMYWVRQAPGQGLEWMGYIDPYNGDTTYNQKFKGRVTMTTDTSTSTAYMELRSLRSDDTAVYYCARTSYYGGMDYWGRGTLVTVASGGGASGGGGSGGGGSDIVMTQTPLSSPVTLGQPASISCRSSQSLVHSNGNTYLHWLQQRPGQPPRLLIYKVSNRFSGVPDRFSGSGAGTDFTLKISRVEAEDVGVYYCSQSTHVPRTFGQGTKLEIKR
B3: scFv clone CJ37 (scFv)
scFv: B2 scFv with K10E, A20V, E82K, Q238R
B4: scFv clone AR74 (scFv)
scFv: B2 scFv with K10E, A20V, D73G, E82K, T99A
B5: scFv clone F61 (scFv)
scFv: B2 scFv with K10E, A20V, E82K
B6: scFv clone AW61 (scFv)
scFv: B2 scFv with K10E, A20V, V68A, E82K
B7: scFv clone DI26 (scFv)
scFv: B2 scFv with N55S
notes: also called DI126
B8: scFv clone K89 (scFv)
scFv: B2 scFv with K10E, A20V, S25R
B9: scFv clone I84 (scFv)
scFv: B2 scFv with K10E, A20V, A40V
B10: scFv clone V37 (scFv)
scFv: B2 scFv with K10E, A20V, A40V
B11: scFv clone Z49 (scFv)
scFv: B2 scFv with K10E, A20V, D89G
B12: scFv clone W36 (scFv)
scFv: B2 scFv with K10E, A20V, E46G
B13: scFv clone H44 (scFv)
scFv: B2 scFv with K10E, A20V, E46G, G131R, V221M
notes: G131R lies in the scFv linker
B14: scFv clone I71 (scFv)
scFv: B2 scFv with K10E, K19R, A20V
B15: scFv clone Q30 (scFv)
scFv: B2 scFv with K10E, A20V, T112A
B16: scFv clone Z23 (scFv)
scFv: B2 scFv with K10E, A20V, E46G, G131R
notes: G131R lies in the scFv linker
B17: scFv clone HX28 (scFv)
scFv: B2 scFv with N55S, D198G
B18: scFv clone G75 (scFv)
scFv: B2 scFv with K10E, A20V, A40V, T112A
B19: scFv clone HU75 (scFv)
scFv: B2 scFv with K10E, A20V, E82K, S144G, Q238R
B20: scFv clone W25 (scFv)
scFv: B2 scFv with K10E, A20V, E46G
B21: scFv clone G38 (scFv)
scFv: B2 scFv with K10E, A20V, A40V, V114A
B22: scFv clone P88 (scFv)
scFv: B2 scFv with K10E, A20V, T138I
B23: scFv clone HW78 (scFv)
scFv: B2 scFv with K10E, A20V, S25R, S77G, E82K
B24: scFv clone G37 (scFv)
scFv: B2 scFv with Q3R, K10E, A20V, S100G
B25: scFv clone HH69 (scFv)
scFv: B2 scFv with N55S, S144G, Q238R
B26: scFv clone G11 (scFv)
scFv: B2 scFv with K10E, A20V, D198G
B27: scFv clone H71 (scFv)
scFv: B2 scFv with K10E, K19R, A20V, T69A, S158T
B28: scFv clone HH41 (scFv)
scFv: B2 scFv with K10E, A20V, E82K, S165G

Target: T1, Source 1 VEGF-D, mature dimeric …
Assay: SPR Protocol A, KD against that of Ig-1A
Protocol: (§1) Protocol A: The first assay format, Protocol A, used an assay system where IgGs were captured on a biosensor chip surface using an anti-human IgG (Fc) antibody and the Source 1 VEGF-D dimer run over the chip as the analyte in solution. This ensured that all IgG molecules were presented to the antigen in an active orientation.
(§2) The SPR protocol was slightly modified to compensate for the dimeric nature of the VEGF-D. Ig-1A or IgG variants were analyzed using an anti-human capture kit as described for Anti-human IgG (Fc) capture above, except that 1000 RU of the IgG or IgG variant was captured on the anti-human chip surface. […] The kinetics generated using this approach are accurate within the experimental parameters set. This standard assay protocol is best suited to studying 1:1 interactions and thus, may not be ideal for analyzing binding between the IgG variants and the VEGF-D dimer. In light of this, Protocol B was also used.

Row | Fold-improvement with respect to Ig-1A [fold] | Binder
1 | 1.8 | B1

Target: T2, VEGF-D (recombinant human; source not …)
Assay: SPR (BIAcore), VEGF-D amine-coupled on CM5, purified scFv as analyte
Protocol: (§3) scFv variants were fully characterized using a BIAcore™ biosensor. All isolated scFv samples were purified as monomer peaks by anti-FLAG affinity chromatography followed by gel filtration chromatography. BIAcore™ analysis was performed by directly immobilizing VEGF-D on a CM5 surface using amine coupling, with the scFv run as the analyte. Analysis of binding was carried out using the BIAevaluation kinetic analysis software. All repeats were separate protein expressions and were performed at 25° C.
(§4) Clones F61, A63, AR7, AW61, CJ37, DI126 and DA18 were produced in large-scale expression cultures and purified by anti-FLAG affinity chromatography and gel filtration. The binding kinetics against VEGF-D were then measured using a BIAcore™ biosensor as described previously.

Row | Kd [nM] | koff [s⁻¹] | kon [M⁻¹ s⁻¹] | Binder
2 | 4.83 | 0.0072 | 1.49e+06 | B2
3 | 3.55 | 0.00995 | 2.81e+06 | B3
4 | 2.12 | 0.00379 | 1.79e+06 | B4
5 | 3.31 | 0.00899 | 2.72e+06 | B5
6 | 4.23 | 0.00828 | 1.96e+06 | B6
7 | 3.12 | 0.0093 | 2.98e+06 | B7

Target: T2, VEGF-D (recombinant human; source not …)
Assay: SPR (BIAcore), KD against that of scFv 1A
Protocol: as §3, §4

Row | Fold-improvement with respect to clone 1A [fold] | Binder
8 | 2.7 | B2
9 | 3.7 | B3
10 | 6.2 | B4
11 | 4 | B5
12 | 3.1 | B6
13 | 4.2 | B7

Target: T1, Source 1 VEGF-D, mature dimeric …
Assay: cell-based or functional assay

Row | rank in the VEGFR-3-Ba/F3 bioassay [rank] | Binder
14 | 1 | B1

Target: T3, Source 2 VEGF-D, purified recombinant …
Assay: cell-based or functional assay

Row | rank in the VEGFR-3-Ba/F3 bioassay [rank] | Binder
15 | 1 | B1

Target: T1, Source 1 VEGF-D, mature dimeric …
Assay: SPR Protocol A: IgG captured by anti-human Fc, VEGF-D dimer as analyte
Protocol: as §1, §2

Row | Kd [nM] | koff [s⁻¹] | kon [M⁻¹ s⁻¹] | Binder
16 | 0.383 | 0.00014 | 360000 | B1

Target: T2, VEGF-D (recombinant human; source not …)
Assay: SPR (BIAcore) off-rate ranking of scFv clones
Protocol: Screening based on scFv binding properties involved surface plasmon resonance (SPR) measurements with a BIAcore™ biosensor. scFv variants were expressed in 200 μL E. coli cultures and the supernatants used to generate crude off-rate only kinetics, which were assessed “relative” to 1A, or other variants.

Row | koff [s⁻¹] | Binder
17 | 0.00327 | B2
18 | 0.00403 | B8
19 | 0.00738 | B9
20 | 0.00794 | B10
21 | 0.00497 | B11
22 | 0.00611 | B12
23 | 0.00732 | B3
24 | 0.00657 | B13
25 | 0.00167 | B4
26 | 0.00661 | B14
27 | 0.0072 | B15
28 | 0.00556 | B16
29 | 0.00643 | B17
30 | 0.0072 | B18
31 | 0.00181 | B19
32 | 0.0046 | B20
33 | 0.00772 | B21
34 | 0.00785 | B22
35 | 0.00335 | B5
36 | 0.00189 | B23
37 | 0.00586 | B24
38 | 0.00212 | B25
39 | 0.00464 | B26
40 | 0.00222 | B6
41 | 0.00653 | B27
42 | 0.00104 | B28
43 | 0.00361 | B7
